One substance from patent US20160237156A1 can be followed below.

Assay [1] has as its target SNAP-tag-CXCR4 (Tag-lite labeled CXCR4 cells, Cisbio Bioassays) (UniProt P61073). Nature of the assay: Tag-lite HTRF competition with 50 nM fluorescent SDF-1 on Tag-lite labeled CXCR4 cells. (Time-resolved FRET reads energy transfer from a long-lived donor to a nearby acceptor.)
The target in another assay is CXCR4 (human) (UniProt P61073). The assay can be described thus: cell-based or functional assay.
Assay [2] addresses SNAP-tag-CXCR4 (Tag-lite labeled CXCR4 cells, Cisbio Bioassays) (UniProt P61073). Nature of the assay: Tag-lite HTRF competition with 50 nM fluorescent SDF-1, Cheng-Prusoff.

Chain of SNAP-tag-CXCR4 (Tag-lite labeled CXCR4 cells, Cisbio Bioassays) (P61073 whole entry): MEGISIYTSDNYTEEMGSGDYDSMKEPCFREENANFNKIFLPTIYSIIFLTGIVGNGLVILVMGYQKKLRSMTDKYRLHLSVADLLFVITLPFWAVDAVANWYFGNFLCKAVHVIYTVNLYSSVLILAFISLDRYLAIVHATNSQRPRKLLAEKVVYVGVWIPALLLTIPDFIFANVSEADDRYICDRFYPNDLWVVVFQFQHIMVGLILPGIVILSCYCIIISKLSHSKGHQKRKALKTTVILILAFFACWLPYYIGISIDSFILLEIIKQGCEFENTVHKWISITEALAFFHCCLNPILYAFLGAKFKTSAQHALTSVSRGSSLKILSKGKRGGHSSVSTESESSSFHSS
Chain of CXCR4 (human) (P61073 whole entry): as above

“mouse anti-human CXCR4 monoclonal antibody (Clone 12G5, R&D system)”: the IC50 in assay [1] is 4.4 nM. This substance yielded an inhibition of SDF-1 induced migration of Ramos cells, EC50 with CXCR4 (human) of 2.1 nM. This substance had a Ki in assay [2] of 0.97 nM.

In general, IC50 refers to the midpoint of a concentration-inhibition curve. Low readings indicate greater potency, high ones weaker potency. As usually defined, the Ki is the dissociation constant of the complex between target and ligand, obtained from inhibition or displacement. A low value points to higher affinity.
